Results on one substance are retold here after patent publication US7129332.

A word on the Kd: it is a measure of binding affinity in units of concentration.

The target in assay [1] is EGFRvIII (mutant epidermal growth factor receptor) on NR6M cells (human) (UniProt P00533). Kind of assay: cell-based or functional assay.
The target in assay [2] is EGFRvIII peptide (…-biotin). Kind of assay: SPR (BIAcore), biotinylated peptide on streptavidin chip, immunotoxin injected. On the technique in general: Surface plasmon resonance follows binding to a sensor surface in real time, without labels.

For “MR1(Fv)-PE38 (from UniProt P11439 278-389; P11439 406-638) (scFv)”, in assay [1], the IC50, cytotoxic activity, Experiment 1 is 9.2 ng/mL; the IC50, cytotoxic activity, Experiment 2 was determined as 6.6 ng/mL; the IC50, cytotoxicity (inhibition of [3H]-leucine incorporation) on NR6M cells worked out at 8 ng/mL. The Kd in assay [2] was found to be 8 nM.
